In data set [1] the target is AaLS-13 (Aquifex aeolicus). The data set is described as follows: SEC; Ni-NTA eluate of the co-expressed proteins on Superose 6; 50 mM sodium phosphate pH 7.0, 150 mM NaCl, 1 mM EDTA, 1 mM TCEP; fractions by SDS-PAGE; repeated in buffer at pH 7.0 and 7.4.
Data set [2] deals with the molecule itself. The data set is described as follows: negative stain transmission electron microscopy; purified protein samples (0.05-0.15 mg/mL) on carbon-covered copper grids, uranyl acetate stain, 200 kV.

For the molecule cpAaLS-OaAEP1-C247A, the ratio of cpAaLS-OaAEP1-C247A to AaLS-13 in the cage (estimated from SDS-PAGE band intensity) (AaLS-13 per cpAaLS-OaAEP1-C247A) in data set [1] is 3.3.

B1: AaLS-13 (other, Aquifex aeolicus)
chain: MEIYEGKLTAEGLRFGIVASRFNHALVGRLVEGAIDCIVRHGGREEDITLVCVPGSWEIPVAAGELARKEDIDAVIAIGVLIEGAEPHFDYIASEVSKGLANLSLELRKPISFGDITDDELEEAIECAGTEHGNKGWEAALSAIEMANLFKSLR
notes: negatively supercharged engineered variant of lumazine synthase from Aquifex aeolicus (AaLS); Self-assembles into a protein cage; also called His6-tagged AaLS-13; AsLS-13; source: E. coli SHuffle T7 Express, co-expressed with cpAaLS-OaAEP1-C247A (IPTG induction); in lysate, then purified (Ni-NTA IMAC, SEC)
As for B1, the binding result in data set [2] is “binds”.
